Source: patent publication US20260116983A1 (University of California, published 2026)
Changes are numbered by the printed parent chain.

T1: cynomolgus uPAR (recombinant) (cynomolgus monkey, UniProt Q9GK78 23-303, limits assumed)
T1 construct: also called cyno uPAR; AF647-cyno uPAR
T1 sequence (looked up): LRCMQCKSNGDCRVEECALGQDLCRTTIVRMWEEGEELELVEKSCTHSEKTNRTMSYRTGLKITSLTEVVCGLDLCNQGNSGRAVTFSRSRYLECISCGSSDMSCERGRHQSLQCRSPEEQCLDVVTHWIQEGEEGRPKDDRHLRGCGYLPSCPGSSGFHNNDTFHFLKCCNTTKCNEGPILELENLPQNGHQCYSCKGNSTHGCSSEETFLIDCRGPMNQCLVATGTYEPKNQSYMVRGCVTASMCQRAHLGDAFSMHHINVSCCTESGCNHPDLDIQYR

B1: Antibody 3159 (antibody, human IgG1, V domains shown)
VH: QVTLKESGPGILQSSLTLSLTCSLSGFSLSTSGMGVSWIRQPSGKGLEWLAHIYWDDDKRYNPSLKTRLTISKDASRDQVFLKIISVDTADTGTYYCGRRVRNYFSGTSYWYFDVWGTGTTVTVSS
VL: DVLMTQTPLSLSVSLGDQASISCRSSQNILHRTGNTYLEWYLQKPGQSPKLLIYKVSNRFSGVPDRFSGSGSGTDFTLKISRLEAEDLGVYYCFQGSYVPFTFGSGTKLEMK
notes: Chimeric: mouse VH/VL linked to Herceptin (trastuzumab) human IgG1 / kappa constant regions
B2: Antibody 8163 (antibody, human IgG1, V domains shown)
VH: EVQLVESGGGLVQPGESLTLSCDSNEFDFPSHDMSWVRKTPEKRLELVAAIDSDGGLTYYSNSRERRFIISRDNTKNTLYLQMRSLRSEDTALYYCARRRASYWYFDVWGTGTTVTVSS
VL: DILLTQSPAILPVSPGERVSFSCRASQNIGTSIHWYQQRTNGSPRLLIKYASESISGIPSRFSGSGSGTDFTLSINGVESEDIGDYYCQQSNSWPTFGGGTKLEIK
notes: as for B1
B3: Antibody 3595 (antibody, human IgG1, V domains shown)
VH: EVQLRQSGPELVKPGASVKISCKASGYTFTDYYMNWVKQSHEKSLEWIGNINPNNGGTDYNQKFKGKATLTVDKSSSTAYMELRSLTSEDSAVYYCARSYGSRFPYWGLGTLVTVSA
VL: DIQMTQTTSSLSASLGDRVTISCRASQDITNYLSWYQQKPDGTVKLLIFYTSFLQSGVPLRFSGSGSGADYSLTISNLEQEDFATYFCQQGHTLPWTFGGGTKLEIK
notes: as for B1
B4: Antibody 11857 (antibody, human IgG1, V domains shown)
VH: B3 VH
VL: B3 VL with S52A, F53V, V58F

target: T1, cynomolgus uPAR (recombinant); assay: ELISA, plate-coated cyno uPAR
Procedure: (§1) To ensure the cross-reactivity of the 12 lead candidates was maintained with the Herceptin constant region, their binding to human and cyno uPAR was evaluated by ELISA (FIG. 3A).
(§2) Nunc MaxiSorp™ flat-bottom 96-well plates were coated with human or cyno uPAR (3.19 μg/mL) at 4° C. overnight, and plates were washed with wash buffer and blocked with 5% non-fat dry milk. A standard log serial dilution of each antibody candidate was added to the uPAR-coated plates and incubated at 4° C. overnight. Plates were washed three times and incubated with 50 μL of HRP-conjugated goat anti-human (H+L) antibody (Biorad). After a two-hr incubation, plates were washed, and 100 μL of 1-Step™ Turbo TMB-ELISA Substrate Solution (Thermo Scientific) was added to each well. The reaction was quenched with 2M H₂SO₄ for 5 min at room temperature, and the optical density of each well was measured at 450 nm using a SpectraMax190 microplate reader.

Row | EC50 [nM] | Binder
1 | 0.27 | B1
2 | 0.15 | B2
3 | 0.1 | B3
4 | 0.18 | B4

target: T1, cynomolgus uPAR (recombinant); assay: BLI (Octet HTX); repeated row of the table
Procedure: (§3) Kinetic constant ranges for Octet HTX were between 1 mM to 10 pM.

Row | Kd [nM] | Binder
5 | 8.48 | B4

target: T2, human uPAR (recombinant protein used in ELISA and BLI) (human, UniProt Q03405 23-305, limits assumed); assay: BLI (Octet HTX); repeated row of the table
T2 construct: Whole entry named; also called biotinylated human uPAR
T2 sequence (Q03405 23-305 limits assumed): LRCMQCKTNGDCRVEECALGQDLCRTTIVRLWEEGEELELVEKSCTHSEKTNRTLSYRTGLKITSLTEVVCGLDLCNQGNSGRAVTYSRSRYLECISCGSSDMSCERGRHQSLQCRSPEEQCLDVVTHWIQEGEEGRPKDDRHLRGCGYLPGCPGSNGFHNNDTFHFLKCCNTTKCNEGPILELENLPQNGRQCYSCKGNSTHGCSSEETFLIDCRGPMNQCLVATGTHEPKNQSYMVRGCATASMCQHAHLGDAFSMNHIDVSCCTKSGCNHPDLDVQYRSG
Procedure: as §3

Row | Kd [nM] | Binder
6 | 6.37 | B4

target: T3, human uPAR displayed on the surface of MDA-MB-231 cells (human, UniProt Q03405 23-305); assay: cell-based or functional assay
T3 sequence (Q03405 23-305): as the sequence (Q03405 23-305 limits assumed) above

Row | ADCC NK-92 EC50 [nM] | ADCC NK-92 Max % [%] | ADCC PBMCs EC50 [nM] | ADCC PBMCs Max % [%] | Adhesion blocking EC50 [nM] | Binder | ADC Cytotoxicity EC50 [nM] | ADC Cytotoxicity Max % [%]
7 | 0.887 | 28.2 | 0.11 | 47.4 | 1610 | B1 | 0.75 | 32
8 | 1.14 | 18.8 | 0.09 | 57.5 | 5400 | B2 | 0.57 | 28.7
9 | 0.2 | 21.9 | 0.1 | 55.6 | > 10000 | B3 | 0.66 | 34.8
10 | 5.59 | 27.2 | 0.35 | 52 | 940 | B4 | 0.76 | 35.2

target: T3, human uPAR displayed on the surface of …; assay: flow cytometry on MDA-MB-231 cells

Row | EC50 [µg/mL] | Binder
11 | 0.188 | B1
12 | 0.545 | B4

target: T1, cynomolgus uPAR (recombinant); assay: BLI (Octet HTX)
Procedure: as §3

Row | Kd [nM] | Binder
13 | 934 | B1
14 | 8.48 | B4

target: T2, human uPAR (recombinant protein used in …); assay: BLI (Octet HTX)
Procedure: as §3

Row | Kd [nM] | Binder
15 | < 0.01 | B1
16 | 6.37 | B4

target: T3, human uPAR displayed on the surface of …; assay: flow cytometry (FACS) on MDA-MB-231 cells
Text: Antibodies generated by immunizing animals with suPAR, which lacks the cell surface anchoring motif, can target protein regions that are not accessible for membrane-bound uPAR. […] Thus, FACS was applied to evaluate the cell-surface uPAR recognition by each antibody candidate under different concentrations of MDA-MB-231 cells, a triple-negative breast cancer cell line with high uPAR expression (FIG. 2).
MDA-MB-231 cells were harvested with TrypleE and resuspended in FACS buffer (PBS+1% BSA) to 2×10⁶ cells/mL before being aliquoted to a 96-well plate (100 μL, 2×10⁵ cells/well). Cells were pelleted by centrifuging the microplate for 5 min at 400 RCF and resuspended in PBS containing serially diluted antibodies to a maximum concentration of 600 nM, followed by a 50 min incubation at 4° C. Cells were then washed three times with PBS and incubated with an AlexaFluor488-conjugated goat anti-human IgG for 50 min at 4° C. in the dark. Finally, cells were washed twice with FACS buffer and resuspended in 80 μL for FACS analysis in a Bio-rad S3e Cell Sorter.

Row | Cellular recognition Max % [%] | EC50 [nM] | Binder
17 | 1830 | 0.916 | B1
18 | 2330 | 0.69 | B2
19 | 2280 | 0.453 | B3
20 | 1940 | 2.07 | B4

target: T3, human uPAR displayed on the surface of …; assay: cell-based or functional assay; remark: another data set of the same source

Row | ADCC PBMCs EC50, fold lower than 2G10 [fold] | Binder
21 | 10 to 96 | B2

target: T2, human uPAR (recombinant protein used in …); assay: ELISA, plate-coated human uPAR
Procedure: as §1, §2

Row | EC50 [nM] | Binder
22 | 0.53 | B1
23 | 0.41 | B2
24 | 0.05 | B3
25 | 0.52 | B4

target: T3, human uPAR displayed on the surface of …; assay: flow cytometry on MDA-MB-231 cells; repeated row of the table

Row | EC50 [µg/mL] | Binder
26 | 0.545 | B4
